B1: Secretagogin (Homo sapiens), O76038 (parent)
chain: MDSSREPTLGRLDAAGFWQVWQRFDADEKGYIEEKELDAFFLHMLMKLGTDDTVMKANLHKVKQQFMTTQDASKDGRIRMKELAGMFLSEDENFLLLFRRENPLDSSVEFMQIWRKYDADSSGFISAAELRNFLRDLFLHHKKAISEAKLEEYTGTMMKIFDRNKDGRLDLNDLARILALQENFLLQFKMDACSTEERKRDFEKIFAYYDVSKTGALEGPEVDGFVKDMMELVQPSISGVDLDKFREILLRHCDVNKDGKIQKSELALCLGLKINP

Variants of: B1
Conditions: with snp25_mouse Snap25, P60879
snp25_mouse Snap25, P60879, sequence (P60879 whole entry, looked up): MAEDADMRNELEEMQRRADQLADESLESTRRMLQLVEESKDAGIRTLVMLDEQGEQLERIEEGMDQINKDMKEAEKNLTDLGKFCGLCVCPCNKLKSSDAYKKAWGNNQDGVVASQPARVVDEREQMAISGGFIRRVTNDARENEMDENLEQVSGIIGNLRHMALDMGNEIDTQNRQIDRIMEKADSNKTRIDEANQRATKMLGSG

| effect of a mutation on the interaction | Variant |
| --- | --- |
| with no effect | R77H |
